The record followed here is patent publication US20250353909A1 (IMCHECK THERAPEUTICS, published 2025).

Assay [1] addresses BTN3A1 antigen (Sino Biological cat. no. 15973-H08H) (human) (UniProt O00481). Briefly: SPR Biacore T200, single cycle kinetics, culture supernatants.
The target of assay [2] is cynomolgus BTN3A, endogenous on cynomolgus PBMCs (cynomolgus). Briefly: flow cytometry, cynomolgus PBMCs Donor 3, from the fitted curve. Background: Flow cytometry measures light scatter and fluorescence of single cells or particles in a stream.
The target is the same in assay [3]. Briefly: flow cytometry, cynomolgus PBMCs Donor 1, from the fitted curve.
Assay [4] concerns the target human BTN3A, endogenous on human cells (PBMCs; Daudi cells) (human) (UniProt O00481). Briefly: flow cytometry, human PBMCs Donor 1, from the fitted curve.
Assay [5] has as its target cynomolgus BTN3A, endogenous on cynomolgus PBMCs (cynomolgus). Briefly: flow cytometry, cynomolgus PBMCs Donor 3, PE anti-human secondary.
Assay [6] deals with human BTN3A, endogenous on human cells (PBMCs; Daudi cells) (human) (UniProt O00481). Briefly: flow cytometry, human PBMCs Donor 1, PE anti-human secondary.
The target in assay [7] is cynomolgus BTN3A, endogenous on cynomolgus PBMCs (cynomolgus). Briefly: flow cytometry, cynomolgus PBMCs Donor 2, PE anti-human secondary.
Assay [8] deals with BTN3A1 antigen (Sino Biological cat. no. 15973-H08H) (human) (UniProt O00481). Briefly: SPR Biacore T200, multi-cycle kinetics, antibody captured on Protein A, BTN3A1 as analyte.
In assay [9] the target is cynomolgus BTN3A, endogenous on cynomolgus PBMCs (cynomolgus). Briefly: flow cytometry, cynomolgus PBMCs Donor 1, PE anti-human secondary.
For assay [10] the target is unchanged. Briefly: flow cytometry, cynomolgus PBMCs Donor 2, from the fitted curve.
For assay [11], the target named is T1, human BTN3A, endogenous on human cells (PBMCs; Daudi cells) (human, UniProt O00481 30-513). Briefly: cell-based or functional assay.
The target of assay [12] is T2, BTN3A1 antigen (Sino Biological cat. no. 15973-H08H) (human, UniProt O00481 30-254).
T2 construct: Bought recombinant antigen; also called CD277
Briefly: SPR Biacore T200, multi-cycle kinetics, antibody captured on Protein A, BTN3A1 as analyte. The protocol:
Multi-cycle kinetic analysis was performed on the six selected humanized 103.2 variants (VH4/Vκ2, VH4/Vκ3, VH4/Vκ4, VH5/Vκ2, VH5Vκ3, VH5/Vκ4) together with the chimeric antibody and the humanized variant, VH1/Vκ1, using a Biacore T200 (serial no. 1909913) instrument running Biacore T200 Evaluation Software V2.0.1 (Uppsala, Sweden).
Purified antibodies were diluted to a concentration of 2 μg/ml in 2% BSA/PBS. At the start of each cycle, each antibody was captured on the Protein A at a density (RL) of ˜146.5 RU (theoretical value to obtain an RMax of ˜50 RU). Following capture, the surface was allowed to stabilize before injection of the BTN3A1 antigen (Sino Biological cat. no. 15973-H08H). BTN3A1 was titrated in 0.1% BSA/HBS-P+(running buffer) in a two-fold dilution range from 25 to 0.78 nM. The association phase was monitored for 400 seconds and the dissociation phase for 35 minutes (2100 seconds). Kinetic data was obtained using a flow rate of 50 μl/min to minimize any potential mass transfer effects. Regeneration of the Protein A surface was conducted using two injections of 10 mM glycine-HCL pH 1.5 at the end of each cycle. Two blanks (no BTN3A1) and a repeat of a single concentration of the analyte were performed for each tested antibody to check the stability of the surface and analyte over the kinetic cycles. The signal from the reference channel Fc1 was subtracted from that of Fc2, Fc3 and Fc4 to correct for differences in non-specific binding to a reference surface. Additionally, blank runs were subtracted for each Fc to correct any antigen-independent signal variation, such as drift. Sensorgrams were fitted using a one-to-one binding mathematical model with a global RMax parameter and no bulk signal (Constant RI=0 RU).
The relative KD compared to 103.2 chimeric (VH0/Vκ0) was calculated by dividing the KD of the 103.2 Composite Human Antibody™ variants by that of the chimeric on the same chip.
(In general: SPR reads the build-up and loss of mass on a sensor chip optically.)

The target in assay [13] is T1, human BTN3A, endogenous on human cells …. Briefly: flow cytometry, human PBMCs Donor 1, PE anti-human secondary. How it is done: Frozen PBMCs were revived, added to pre-warmed AIM-V (ThermoFisher Scientific, Loughborough, UK) media and counted. Cells were harvested, washed by centrifuging at 500×g for 10 minutes and then resuspended in 1×DPBS, pH 7.4. This step was repeated once and the cells were resuspended in 1×DPBS, pH 7.4 at 1×10⁶ cells/mL. Cells were stained for viable and dead cells by incubating for half an hour in the dark using the LIVE/DEAD® Far Red Dead Cell staining kit (ThermoFisher, Paisley, UK) following the manufacturer's instructions. An aliquot of cells heated at 70° C. for ten minutes was included as the dead cell control. During this staining, a three-point, 1 in 3 titration curve of test antibody (starting from 0.063 μg/mL for the selected antibodies) was prepared in Flow buffer (0.5% BSA, 2 mM EDTA, 1×DPBS, pH 7.4) in a 96-well dilution plate. […] Cells were then analysed on an Attune NxT focusing cytometer (ThermoFisher Scientific, Loughborough, UK), collecting 10,000 events per sample using two laser channels: RL1 for live/dead cells and BL2 for PE. Data was analysed using the instrument statistic tool or FlowJo software (Version 10, FlowJo, LLC, Ashland, USA) gating on the live population of lymphocyte cells. The X-median values from BL2 channel (PE signal) were then calculated and plotted against concentration. […]

Assay [14] addresses T2, BTN3A1 antigen (Sino Biological cat. …). Briefly: SPR Biacore T200, single cycle kinetics, culture supernatants. The protocol:
To assess the binding of all Composite Human Antibody™ variants and to select antibodies with suitable affinity to BTN3A as compared to the original murine antibody, single cycle kinetic analysis was performed on supernatants from transfected cell culture using a Biacore T200 (serial no. 1909913) running Biacore T200 Evaluation Software V2.0.1 (Uppsala, Sweden).

Assay [15] deals with T3, human BTN3A2 expressed on HEK293 cells (human, UniProt P78410 30-334).
T3 construct: Cell microarray (Retrogenix); also called BTN3A2 (two isoforms)
Briefly: cell microarray (Retrogenix), fixed HEK293 cells, 2 µg/ml antibody.

Assay [16] addresses T4, human BTN3A3 expressed on HEK293 cells (human, UniProt O00478 30-584).
T4 construct: Cell microarray (Retrogenix); one isoform of BTN3A3 was a hit; also called BTN3A3 (one isoform)
The assay is described as above.

T2 sequence (O00481 30-254 limits assumed): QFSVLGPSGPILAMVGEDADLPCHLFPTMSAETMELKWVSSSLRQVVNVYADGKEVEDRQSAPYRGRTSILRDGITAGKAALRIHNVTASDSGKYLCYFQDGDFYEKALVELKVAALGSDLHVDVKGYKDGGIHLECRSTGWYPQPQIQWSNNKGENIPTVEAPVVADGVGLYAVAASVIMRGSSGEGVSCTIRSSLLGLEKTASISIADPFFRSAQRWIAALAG
BTN3A1 antigen (Sino Biological cat. no. 15973-H08H) (human), sequence (O00481 30-254 limits assumed): as above
human BTN3A, endogenous on human cells (PBMCs; Daudi cells) (human), sequence (O00481 30-513): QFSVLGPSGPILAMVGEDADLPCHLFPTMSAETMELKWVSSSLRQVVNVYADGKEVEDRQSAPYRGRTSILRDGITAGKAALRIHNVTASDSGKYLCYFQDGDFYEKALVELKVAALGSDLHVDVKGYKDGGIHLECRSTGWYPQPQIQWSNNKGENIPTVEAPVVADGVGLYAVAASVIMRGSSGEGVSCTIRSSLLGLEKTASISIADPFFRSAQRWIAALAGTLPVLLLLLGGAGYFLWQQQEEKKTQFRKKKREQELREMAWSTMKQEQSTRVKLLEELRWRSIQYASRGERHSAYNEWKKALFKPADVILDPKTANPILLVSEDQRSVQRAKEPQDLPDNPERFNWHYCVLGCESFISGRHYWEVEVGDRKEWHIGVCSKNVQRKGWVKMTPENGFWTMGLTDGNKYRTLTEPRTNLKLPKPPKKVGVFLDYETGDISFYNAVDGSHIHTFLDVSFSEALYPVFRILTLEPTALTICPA
T1 sequence (O00481 30-513): as above
T3 sequence (P78410 30-334 limits assumed): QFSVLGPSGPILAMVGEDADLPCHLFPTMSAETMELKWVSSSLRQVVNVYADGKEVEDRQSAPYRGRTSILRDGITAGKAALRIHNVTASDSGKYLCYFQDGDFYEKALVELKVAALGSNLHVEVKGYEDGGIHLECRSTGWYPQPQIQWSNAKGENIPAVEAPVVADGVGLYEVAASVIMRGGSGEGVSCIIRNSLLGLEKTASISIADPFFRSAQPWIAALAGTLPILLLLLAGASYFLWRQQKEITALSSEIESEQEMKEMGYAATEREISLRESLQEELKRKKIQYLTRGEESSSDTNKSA
T4 sequence (O00478 30-584 limits assumed): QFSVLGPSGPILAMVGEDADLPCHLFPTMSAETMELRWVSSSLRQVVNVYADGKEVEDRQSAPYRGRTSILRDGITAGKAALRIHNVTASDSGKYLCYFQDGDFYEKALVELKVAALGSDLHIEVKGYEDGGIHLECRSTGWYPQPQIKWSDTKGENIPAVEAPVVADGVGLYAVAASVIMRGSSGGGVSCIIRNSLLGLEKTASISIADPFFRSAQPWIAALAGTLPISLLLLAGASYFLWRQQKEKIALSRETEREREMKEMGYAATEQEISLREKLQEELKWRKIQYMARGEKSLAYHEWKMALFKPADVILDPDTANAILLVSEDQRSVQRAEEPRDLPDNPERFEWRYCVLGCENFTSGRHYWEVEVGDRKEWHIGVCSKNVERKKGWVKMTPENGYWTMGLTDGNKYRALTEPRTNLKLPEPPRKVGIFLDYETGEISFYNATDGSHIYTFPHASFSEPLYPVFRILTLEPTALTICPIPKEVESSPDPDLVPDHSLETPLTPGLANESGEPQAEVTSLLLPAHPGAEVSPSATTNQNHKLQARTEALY

For the molecule 103.2 chimeric antibody VH0/Vκ0, the Kd (in general, the equilibrium constant for the complex coming apart) worked out at 0.0403 nM in assay [1] and 0.106 nM in assay [8]. The Relative KD to 103.2 chimeric in assay [1] worked out at 1. The Theoretical Max binding (MFI) in [2] came to 5150 MFI; in assay [3] it was 8950 MFI; in [4], 19600 MFI; in assay [10] it was 5940 MFI. The EC50 (usually the midpoint of the concentration-response curve) turned out to be 0.013 mg/L in assay [5], 0.019 mg/L in assay [6], 0.012 mg/L in assay [7] and 0.014 mg/L in [9]. This molecule also registered a Relative KD to chimeric in assay [8] of 1. Moreover, in assay [8], the koff (usually the first-order rate constant of dissociation) was 8.98e-05 s⁻¹. The kon (as a rule, the second-order rate constant of association) in assay [8] came out at 845000 M⁻¹ s⁻¹.

B1: 103.2 humanized variant VH4/Vκ4 (antibody, V domains shown)
VH: QVQMQQSGAEVKKPGASVKVSCKASGYAFTSYLIHWIKQRPGQGLEWIGVINPRSGDSHYNEKFKDRVTMTADQSISTAYMELSRLRSDDTAVYYCARSDYGAYWGQGTLVTVSS
VL: EIVLTQSPATLSVSPGERATLSCRASQSISNNLHWYQQKPGQAPRLLIKYASQSAFGIPARFSGSGSGTEFTLTISSLQSEDFAVYFCQQSNSWPHTFGQGTKLEIK
notes: also called H4K4; 103.2 VH4/V κ 4
For B1, the Theoretical Max binding (MFI) in [2] is 4970 MFI; in [3], 8560 MFI; in [10] it was 5820 MFI. In addition, the “IC50 (µg/ml), inhibition of γδ T cell degranulation (CD107a/b) against Daudi cells” value in assay [11] is 0.0121 µg/mL. Besides, the half-maximal effective concentration (EC50) in assay [5] amounted to 0.012 mg/L; in [13] it was 0.017 mg/L; in assay [7], 0.011 mg/L; in [9], 0.013 mg/L. Besides, the Kd in assay [12] worked out at 0.108 nM; in [14], 0.054 nM. The “Relative KD to chimeric” value in assay [12] stood at 1 ratio. Further, in assay [12], the koff amounted to 8.33e-05 s⁻¹. Further, the kon in assay [12] amounted to 770000 M⁻¹ s⁻¹. In addition, the “Relative KD to 103.2 chimeric” value in assay [14] was 1.3 ratio.

B2: mAb1 (Fc-silenced humanized 103.2 IgG1) (antibody, V domains shown)
VH: QVQMQQSGAEVKKPGASVKVSCKASGYAFTSYLIHWIKQRPGQGLEWIGVINPRSGDSHYNEKFKDRVTMTADQSISTAYMELSRLRSDDTAVYYCARSDYGAYWGQGTLVTVSS
VL: EIVLTQSPATLSVSPGERATLSCRASQSISNNLHWYQQKPGQAPRLLIKYASQSAFGIPARFSGSGSGTEFTLTISSLQSEDFAVYFCQQSNSWPHTFGQGTKLEIKR
notes: Fc-silenced human IgG1, kappa; also called humanized 103.2 Fc-silenced IgG1; Hu103.2
In the case of B2, the binding result in [15] and in assay [16] was “binds” in each case.
